Laboratory results as given in PMC4838342 (Nucleic Acids Research, 2015).

System: MBP H3 116–135
Assay: Pulldown of MBP H3 116–135 by (His)6-sNASP truncations
Format: binding
Details: (His)6-tagged sNASP truncations, SDS-PAGE, Coomassie, western blotting for MBP
Experimental: Protein was eluted in the same buffer with 250 mM imidazole, but without protease inhibitors. The (His)6 tag was cleaved overnight by TEV protease, whilst concomitantly dialysing to 100 mM sodium chloride, 20 mM Tris–HCl pH 8.0, 1 mM EDTA and 5 mM dithiothreitol. Cleaved protein was further purified by ion-exchange using a ResourceQ column (GE Healthcare) before gel filtration chromatography in 200 mM sodium chloride, 20 mM Hepes-KOH pH 7.6 and 1 mM EDTA using a 26/60 Superdex 200 column (GE Healthcare). The purified protein was concentrated and stored in aliquots at −80°C. Homologues, truncations and point mutants of sNASP were expressed and purified using the same method. MBP-H3 peptide fusions were expressed in bacteria and used as whole cell extracts (epitope mapping) or purified over a Dextrin Sepharose column (GE Healthcare) in one-step purification in 0.5 M sodium chloride, 20 mM Hepes-KOH pH 7.6, 1 mM EDTA and 5 mM dithiothreitol. Concentrated protein was dialysed against 200 mM sodium chloride, 20 mM Hepes-KOH, 1 mM EDTA and 5 mM dithiothreitol and stored in aliquots at −80°C.
Mutations were made in the MBP H3 116–135 construct using a mixture of site-direct mutagenesis and oligo ligation. Whole cell extracts were prepared from bacteria and used as inputs for the pulldown experiments with (His)6-sNASP pre-bound to Nickel-NTA beads (GE Healthcare).
A BsNASP mutantsH3 peptide […]
200 A260 M Elution volume (mL) […]
construct used for NMR (A) Various truncations of (His)6-sNASP were tested for their ability to pull down MBP -H3 116-135 ( W T ) or a scrambled peptide (Sc). […]
separated by SDS-PAGE and stained with Coomassie. […]
western blotting for MBP was also carried out. (B) Domain diagrams of truncations shown in A with TPR motifs in green, the acidic loop region in yellow and the predicted capping region in grey. A summar y of the interaction with MBP-H3 116-135 is shown on the right hand side.
Binding Protein; CR, capping region; TPR, tetratricopeptide repeat; cTPR, contiguous TPR; mcTPR, minimum contiguous […]

B1: N-300: sNASP truncated at residue 300 (protein, UniProt P49321 1-300, looked up, fragment)
chain: MAMESTATAAVAAELVSADKIEDVPAPSTSADKVESLDVDSEAKKLLGLGQKHLVMGDIPAAVNAFQEAASLLGKKYGETANECGEAFFFYGKSLLELARMENGVLGNALEGVHVEEEEGEKTEDESLVENNDNIDEEAREELREQVYDAMGEKEEAKKTEDKSLAKPETDKEQDSEMEKGGREDMDISKSAEEPQEKVDLTLDWLTETSEEAKGGAAPEGPNEAEVTSGKPEQEVPDAEEEKSVSGTDVQEECREKGGQEKQGEVIVSIEEKPKEVSEEQPVVTLEKQGTAVEVEAESL
modifications: sNASP
ability to bind / pull down MBP H3 116–135: incapable of binding H3 | ability to bind / pull down MBP H3 116–135 (listed as Truncating sNASP close to TPR4 at residue 300): loss of interaction

B2: N-330: sNASP truncated at residue 330 (protein, UniProt P49321 1-330, looked up, fragment)
chain: MAMESTATAAVAAELVSADKIEDVPAPSTSADKVESLDVDSEAKKLLGLGQKHLVMGDIPAAVNAFQEAASLLGKKYGETANECGEAFFFYGKSLLELARMENGVLGNALEGVHVEEEEGEKTEDESLVENNDNIDEEAREELREQVYDAMGEKEEAKKTEDKSLAKPETDKEQDSEMEKGGREDMDISKSAEEPQEKVDLTLDWLTETSEEAKGGAAPEGPNEAEVTSGKPEQEVPDAEEEKSVSGTDVQEECREKGGQEKQGEVIVSIEEKPKEVSEEQPVVTLEKQGTAVEVEAESLDPTVKPVDVGGDEPEEKVVTSENEAGKAVL
modifications: sNASP
ability to bind / pull down MBP H3 116–135: binds the H3 C-terminal peptide with affinity similar to the full length | ability to bind / pull down MBP H3 116–135 (listed as truncation at residue 330): retained the interaction
